Experimental data from the DeepSol protein solubility set.

Assay: soluble on expression in E. coli; label from the status in PepcDB or PDB records

Sequence | soluble on expression in E. coli
NILTDGAIKKLTLNKLFERYMSTRELKESTRANYLKTWENRVKDEIGNIKVIQILPSHIKSFYSKLSKAGYAYSTIKFINNMIYPALEMAVDDDIIRKNPAKFSISDYGRQAEERIALTVLQQEKMLEFVKNNQVYNTYYPMLRIMLGTGVRCGELIGLTWEDVDVRTKAVSIDHQLIYKDLGDGYKFHISTPKTDSGIRTIPMTSDVQRAFEEQKKLNFMLQKGKDVEIDGYKGFIFMAKSGRPLMPSAINNILYNIVDAYNKKEVQIAKTEHRNAELLPTVSAHIMRHTACTRMAEKRMDVKVLQYIMGHAHIDVTMDVYNHVSEMSRIESEITRLESVAIS | not soluble
MGLLDMIGPVMVGPSSSHTAGACRLALLARHLLGEKPKRVEFGLHGSFAKTGKGHGTHLALAAGVLGLTPDDERLKESLSLAEREGVEVVFKEVELGDVHPNTVRMVLEGEKERLAVTGSSLGGGLVRVFDVDGFEVRITGSAPTLVIKNVDTPGVVARVARILADDEVNIAYLTVSRKKRGGEAMMSIEVDRPLSEVPLRYLEHLSYILWVRQIPPVMG | soluble
MSLKEDYADVRNVMIMGGSRIAVRTAQYVPDYMQVKIVDNDINRCNRLTELLDDKTMIINGDGRDMDLLIEEGLKNTEAFVALTDNSETNILACLAAKRMGVEKTVAEVENIDYIGMAESLDIGTVINKKMIAASHIYQMMLDADVSNVKCLTFANADVAEFTVPAGAKITKNLIKDLGLPKGTTIGGMIRNGEGVLVTGDTLIRPGDHVVVFCLSMMIKKIEKFFNEGHHHHHH | not soluble
MKITREELAVQVDVAQWSWLRAHLERGGLIVVNRGLDLVEVGVSIASDDTAVVGDWIQTGLLAKPSAEQISAWDANEEISFSALIISPYVLIQEQKQ | not soluble
MLAQQRLDFEFRPMTAADVGNAHELSIALKWPHRLEDWAMLQRVAQGFVAVRNGRLIGSAFACHQGEFSTIGLVIVSDDYQGKGIGRKLMELAVGSIPPRTAILNATLAGAPLYEKMGFVSFGEIQQRQGQAQLPDATLLTAEESCRVLSEADHDRVLELGNAGSGLDRSVTLGDLLNNLEHAVGIDRDGQLQAFALLRPFGRGLCIGPVVAQTVEQARHMIEHLLARVPYAFVRIDIPTHCGLADWLEAAGLKRVDSVTCMSMGAVPQAREGVSQFALITQAIG | not soluble
MANQLSTQQVKRDITTDPTLLTGADIKKYFDPQNLLSEKQVGQALALCKGRNLNPFANEVYIVAYKNNSGTDFSLIVSKEAFMKRAERCEGYDGFEAGITVMRNGEMVEIEGSLKLPDDVLIGGWAIVYRKDRSHRYKVTVDFNEYVKLDKYGNPRSTWKSMPGTMIRKTALVQTLREAFPDELGNMYTDIDGGDTFDAIKDVTPQETQEEVRARKMAQIEQYKQEQTQKQTQKADTSYPVDEVSEHTDDPVQGELLDGELEY | not soluble
MGSDKIHHHHHHLSSPQYRINMQKYVFRIHPLNTYQLSFFPNYEVNMYKKLNPMIGDRVYRSKGLVMHVGVMVDRDLVAHNSPDNNVEVISMEHFSQGKKVELKRSIGVDPTALKAQLQRISEENRRYCPISFNCEHFANELLGTKDGSEQLLAALLVGSFGLTCKNKWLGLATAGATGLLLCNGLRKYSTT | not soluble
MDAKQRIARRVAQELRDGDIVNLGIGLPTMVANYLPEGIHITLQSENGFLGLGPVTTAHPDLVNAGGQPCGVLPGAAMFDSAMSFALIRGGHIDACVLGGLQVDEEANLANWVVPGKMVPGMGGAMDLVTGSRKVIIAMEHCAKDGSAKILRRCTMPLTAQHAVHMLVTELAVFRFIDGKMWLTEIADGCDLATVRAKTEARFEVAADLNTQRGDL | soluble
MLYLAELLQGKNALITGAGRGIGRAVAIALAKEGVNVGLLARSEENLKAVAKEVEAEGVKAVIATADVSSYEEVTTAIETLKNGLGSIDILINNAGISKFGKFLELDVADWEKIIQVNLMGVYYATRAALPSMIEQQSGDIINISSTAGQKGAPVTSAYSASKFGVLGLTESLAMEVRKHNIRVTALTPSTVATDMAVDLGLTDGNPDKVMQAEDIAEFIVAQLKLNKRTFIKSAGLWSTNP | not soluble
MSLKCETERSKTWNNFGNGIPCVLGIDEAGRGPVLGPMVYAAAISPLDQNVELKNLGVDDSKALNEAKREEIFNKMNEDEDIQQIIAYALRCLSPELISCSMLKRQKYSLNEVSHEAAITLIRDALACNVNVVEIKVDTVGPKATYQAKLEKLFPGISICVTEKADSLFPIVSAASIAAKVTRDSRLRNWQFREKNIKVPDAGYGSGYPGDPNTKKFLQLSVEPVFGFCSLVRSSWKTASTIVEKRCVPGSWEDDEEEGKSQSKRMTSWMVPKNETEVVPKRNVYFKERHMSNILTF | not soluble
